How the values were obtained:
[1] = target: T1, IFF01073 produced in E. coli without glycosylation
T1 chain: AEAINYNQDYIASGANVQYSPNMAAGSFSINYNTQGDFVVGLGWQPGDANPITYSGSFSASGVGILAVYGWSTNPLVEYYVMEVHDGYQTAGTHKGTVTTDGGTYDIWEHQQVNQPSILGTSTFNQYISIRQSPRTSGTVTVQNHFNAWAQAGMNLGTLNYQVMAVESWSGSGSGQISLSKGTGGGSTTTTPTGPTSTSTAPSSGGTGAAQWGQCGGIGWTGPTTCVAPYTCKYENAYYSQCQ

[2] = target: T2, IFF01073 produced in T. reesei with glycosylation
T2 chain: T1 chain

[3] = target: T3, IFF01509
T3 chain: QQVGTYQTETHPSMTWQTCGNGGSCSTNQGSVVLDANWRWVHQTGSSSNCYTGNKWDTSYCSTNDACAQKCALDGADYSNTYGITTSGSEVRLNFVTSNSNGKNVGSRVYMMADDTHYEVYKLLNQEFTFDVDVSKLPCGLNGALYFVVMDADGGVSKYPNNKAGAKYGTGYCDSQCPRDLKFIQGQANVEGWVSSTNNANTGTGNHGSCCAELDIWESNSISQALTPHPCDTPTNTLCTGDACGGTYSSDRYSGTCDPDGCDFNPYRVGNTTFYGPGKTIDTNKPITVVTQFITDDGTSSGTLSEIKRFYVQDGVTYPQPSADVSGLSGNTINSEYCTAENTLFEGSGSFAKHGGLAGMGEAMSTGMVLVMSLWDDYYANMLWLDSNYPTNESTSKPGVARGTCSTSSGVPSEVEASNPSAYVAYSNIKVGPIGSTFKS

[4] = target: T4, IFF01540
T4 chain: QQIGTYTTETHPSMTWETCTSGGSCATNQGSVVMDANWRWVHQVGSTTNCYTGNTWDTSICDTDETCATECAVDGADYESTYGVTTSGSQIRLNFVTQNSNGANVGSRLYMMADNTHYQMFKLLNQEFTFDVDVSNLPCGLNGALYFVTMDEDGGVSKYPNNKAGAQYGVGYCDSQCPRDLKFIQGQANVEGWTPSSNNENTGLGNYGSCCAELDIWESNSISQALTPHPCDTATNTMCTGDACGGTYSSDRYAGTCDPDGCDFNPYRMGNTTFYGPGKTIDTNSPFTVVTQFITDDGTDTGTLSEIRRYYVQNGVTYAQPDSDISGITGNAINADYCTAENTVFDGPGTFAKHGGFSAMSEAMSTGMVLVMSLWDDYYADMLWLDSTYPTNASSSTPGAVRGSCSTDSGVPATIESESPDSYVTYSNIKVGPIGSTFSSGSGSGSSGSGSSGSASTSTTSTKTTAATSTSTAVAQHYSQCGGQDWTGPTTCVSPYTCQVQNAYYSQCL

[5] = target: IFF03904
[6] = target: T5, IFF05588
T5 chain: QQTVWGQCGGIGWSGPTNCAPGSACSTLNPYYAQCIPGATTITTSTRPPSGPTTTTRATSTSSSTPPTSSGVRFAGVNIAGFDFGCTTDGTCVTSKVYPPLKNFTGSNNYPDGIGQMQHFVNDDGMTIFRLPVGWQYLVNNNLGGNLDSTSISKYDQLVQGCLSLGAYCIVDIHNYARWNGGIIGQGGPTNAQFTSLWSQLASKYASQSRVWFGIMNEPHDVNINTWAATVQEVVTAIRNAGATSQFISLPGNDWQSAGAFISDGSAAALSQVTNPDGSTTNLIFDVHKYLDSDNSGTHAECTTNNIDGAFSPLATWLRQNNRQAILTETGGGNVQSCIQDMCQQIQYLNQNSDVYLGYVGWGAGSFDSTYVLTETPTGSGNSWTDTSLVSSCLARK

[7] = target: IFF06679
[8] = target: T6, IFF07399
T6 chain: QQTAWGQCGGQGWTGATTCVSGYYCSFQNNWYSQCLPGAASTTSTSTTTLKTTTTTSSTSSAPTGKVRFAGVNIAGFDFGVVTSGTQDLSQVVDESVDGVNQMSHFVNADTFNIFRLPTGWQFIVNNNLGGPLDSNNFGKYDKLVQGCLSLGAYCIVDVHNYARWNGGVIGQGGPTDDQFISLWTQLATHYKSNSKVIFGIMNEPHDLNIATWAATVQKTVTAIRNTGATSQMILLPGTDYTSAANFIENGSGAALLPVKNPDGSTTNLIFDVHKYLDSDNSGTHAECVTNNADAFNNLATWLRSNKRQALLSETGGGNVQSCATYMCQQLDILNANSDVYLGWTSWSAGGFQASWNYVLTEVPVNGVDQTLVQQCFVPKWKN

[9] = target: IFF08955
[10] = target: IFF08955v3

B1: IFF05497 (protein)
chain: LAILDKPVIQPNFPGNGLASLGQGLMDHLAPTHSTWDDWGAGWIPQDCKSLVEGAGLSASDVIPFNIHYDDCAQTWTFCRHKDSPLSEITILDIFGRLPVRMRSFVRHLVFIPGAKSAGSNGDNVLLRGDIDVTVFAHEIGHSLDSHAFDPSYGVPFSTGNVWISNYNLDSAVPDPYAQTSQQENFAQQTVISLYDKVVPGGIGTIQPNWQAIFHQYATLEGYIGDVIIPGGTCTHRLTDSPPVQMSSLAKGRRALGPKPNVALSPEVEEIEAIPMKSSITMTSFDEAGKPNGTYVINL
no: Gel mobility change (SDS-PAGE) [1] | Mobility change (SDS-PAGE) [3] | Mobility change (SDS-PAGE) [9]
yes: Gel mobility change (SDS-PAGE) [2] | Mobility change (SDS-PAGE) [2] | Mobility change (SDS-PAGE) [4] | Mobility change (SDS-PAGE) [5] | Mobility change (SDS-PAGE) [6] | Mobility change (SDS-PAGE) [7] | Gel mobility change (SDS-PAGE) [8] | Mobility change (SDS-PAGE) [8] | Mobility change (SDS-PAGE) [10]
-0.77: Relative late peak area (centered, scaled, averaged over 5, 10 and 15 min) [6]
-0.28: Relative late peak area (centered, scaled, averaged over doses, 24 h; sample diluted 1-fold) [6]

Source: US20250051821
